The target in the test is T1, H. pylori catalase (Helicobacter pylori, UniProt P77872 1-505).
T1 construct: mature; also called katalase; immunizing antigen
T1 sequence (looked up): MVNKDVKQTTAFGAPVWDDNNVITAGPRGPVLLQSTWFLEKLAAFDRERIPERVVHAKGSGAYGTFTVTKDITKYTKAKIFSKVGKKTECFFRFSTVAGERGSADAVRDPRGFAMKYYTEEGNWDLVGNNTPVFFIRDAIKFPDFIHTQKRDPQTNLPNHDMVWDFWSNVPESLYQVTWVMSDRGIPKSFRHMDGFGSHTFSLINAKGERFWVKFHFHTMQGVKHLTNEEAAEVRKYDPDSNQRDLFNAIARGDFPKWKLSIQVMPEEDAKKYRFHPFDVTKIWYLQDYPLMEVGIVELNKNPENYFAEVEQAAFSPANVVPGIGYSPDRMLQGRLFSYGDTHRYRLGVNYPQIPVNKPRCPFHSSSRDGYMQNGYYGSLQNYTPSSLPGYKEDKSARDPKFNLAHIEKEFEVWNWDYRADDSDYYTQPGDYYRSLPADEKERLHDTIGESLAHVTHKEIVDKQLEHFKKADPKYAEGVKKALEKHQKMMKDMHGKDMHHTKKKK
The experiment in a line: SPR (BIAcore), catalase amine-coupled on CM5 chip, antibody 20-670 nM in flow. How it is done: Catalase was Immobilized through amine coupling on the dextrane matrix of the BIAcore CM5 sensor chip. For the activation of the dextrane matrix 45 μl of a 1:1-mixture of 0.05 M N-hydroxysuccinimide (NHS) and 0.2 M 1-ethyl-3-3-dimethylaminopropyl)carbodiimide (EDC) solution was conducted over the sensor chip at a flow rate of 5 μl/min. Then, the catalase (35 μl; 50 μg/ml in 10 mM sodium acetate, pH 5.0) were bound to the dextrane matrix. The remaining NHS ester was deactivated with 1 M ethanolamine (35 μl). Catalase that was not covalently bound to the dextrane matrix was removed by regenerating the sensor chip with HCl (10 mM; 15 μl).
By adding the catalase-specific monoclonal antibodies, these were made react with immobilized catalase and the mass attachment to the detector was measured. Antibody solutions in different concentrations ranging from 20 to 670 nM were used. They were injected via the catalase immobilized on the sensor chip at a flow rate of 25 μl/min each.
The values for the rate constants of the adsorption ($kon$) and desorption ($koff$) of the antibody could be calculated (BIAevaluation software 3.0).
In general terms: In SPR one partner is held on a chip, and binding of the other changes the refractive index at the surface.

The term Kd denotes the free concentration of one partner at which half of the binding sites on the other are occupied at equilibrium, for simple one-to-one binding. A lower Kd goes with higher affinity. A word on the koff: it is the first-order rate constant of dissociation. Read a low koff as slow dissociation. The kon is the second-order rate constant of association. A higher kon goes with faster complex formation.

B1: monoclonal antibody HP25.6m/1B5 (antibody, IgG1, V domains shown)
VH: EVQLQQSGAELVKPGASVKLSCTSSGFNIKDTYVHWMKQRPEQGLEWIGKIDPANGKTKYDPIFQAKATMTADASSNTAYLQLSSLTSEDTAVYYCALPIYYASSWFAYWGQGTLVTVSA
VL: DIVMTQSHKFMSTSVGDRVSITCKASQDVGTSVAWYQQKPGHSPKLLIYWTSTRHTGVPDRFTGSGSGTDFILTISNVQSEDLADYFCQQYSSSPTFGGGAKVEIK
notes: also called HP25.6m1/1B5
The molecule B1 had a Kd of 0.681 nM, a koff of 3.86e-05 s⁻¹ and a kon of 56700 M⁻¹ s⁻¹.

B2: monoclonal antibody HP25.2m/2H10 (antibody, IgG2a, V domains shown)
VH: VQLLEQPGAELAKPGASVKMSCKASGYTFTNYWIHWVKQRPGQGLKWIGYINPATGSTSYNQDFQDRATLTADKSSTTAYMQLTSLTSEDSSVYYCAREGYDGFDSWGQGTTLTVSS
VL: ELVLTQSPAIMSASPGEKVTMTCSASSSVNYMYWYQQKSGTSPKRWIYDTSKLASGVPARFSGSGSGTSYSLTLSSMEAEDAATYYCQQWSSNPYTFGGGTKLEIK
notes: also called HP25.2m/2H10 (K10); HP25.2m/2Hallin (K10)
The molecule B2 had a Kd of 0.271 nM, a koff of 3.9e-05 s⁻¹ and a kon of 144000 M⁻¹ s⁻¹.

For the origin of these results see patent US7129053 (DAKOCYTOMATION DENMARK A S, dated 2006).
